Source: the supplement of paper PMC6757056
± gives the standard deviation of the averaged measurements.

B1: library; a variant is named by its letters at N, in order (parent)
chain: GCUGUCACCGAGAAACUGUGAAGUAUAUCUUAAACCUGGGCACUUAAAAGAUAUAUGGAGUUAGUAGUGCAACCUGCUCGGUCUGAUGAGUCCNNNNNNGGACGAAACAGC

Key:
[1] = variants of: B1; assay: normalized RNA/DNA level without ligand (relative to sTRSVctl = 100) (log10 (% of sTRSVctl)); HEK293T; ligand: cyclic di-GMP (c-di-GMP-II aptamer); higher = less ribozyme self-cleavage, higher mRNA level; conditions: reporter: mCherry (pCS4076), ligand present: no
Summary of the method: (§1)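 Total RNA, extracted with EDTA 72 h after HEK293T cells were transfected with 4 µg per 6-well well of reporter-linked ribozyme switch library plasmids, was reverse-transcribed, amplified, barcoded and sequenced. Ligand, if used, was added 1 h before transfection. RNA level was derived from RNA reads divided by DNA reads and normalized to a spiked-in non-cleaving sequence or to the top sequences. This was multiplied by 100 and log10-transformed, with the top set of 25 sequences and a ≥100 DNA read minimum.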

[2] = variants of: B1; assay: normalized RNA/DNA level with ligand (relative to sTRSVctl = 100) (log10 (% of sTRSVctl)); HEK293T; ligand: cyclic di-GMP (c-di-GMP-II aptamer); ligand concentration (+) RNA-Seq: 1 mM; higher = less ribozyme self-cleavage, higher mRNA level; conditions: reporter: mCherry (pCS4076), ligand present: yes
Summary of the method: as §1

Variant	normalized RNA/DNA level without ligand (log10) [1]	normalized RNA/DNA level with ligand (log10) [2]
GCUGUCACCGAGAAACUGUGAAGUAUAUCUUAAACCUGGGCACUUAAAAGAUAUAUGGAGUUAGUAGUGCAACCUGCUCGGUCUGAUGAGUCCCUGACAGGACGAAACAGC [CUGACA]	1.51 ± 0.086	1.7 ± 0.075
GCUGUCACCGAGAAACUGUGAAGUAUAUCUUAAACCUGGGCACUUAAAAGAUAUAUGGAGUUAGUAGUGCAACCUGCUCGGUCUGAUGAGUCCAUGAAUGGACGAAACAGC [AUGAAU]	1.53 ± 0.055	1.72 ± 0.024
GCUGUCACCGAGAAACUGUGAAGUAUAUCUUAAACCUGGGCACUUAAAAGAUAUAUGGAGUUAGUAGUGCAACCUGCUCGGUCUGAUGAGUCCACCAUGGGACGAAACAGC [ACCAUG]	1.61 ± 0.099	1.74 ± 0.057
GCUGUCACCGAGAAACUGUGAAGUAUAUCUUAAACCUGGGCACUUAAAAGAUAUAUGGAGUUAGUAGUGCAACCUGCUCGGUCUGAUGAGUCCCAUGCGGGACGAAACAGC [CAUGCG]	1.81 ± 0.029	1.9 ± 0.14
GCUGUCACCGAGAAACUGUGAAGUAUAUCUUAAACCUGGGCACUUAAAAGAUAUAUGGAGUUAGUAGUGCAACCUGCUCGGUCUGAUGAGUCCGCGUCCGGACGAAACAGC [GCGUCC]	1.63 ± 0.055	1.81 ± 0.047
GCUGUCACCGAGAAACUGUGAAGUAUAUCUUAAACCUGGGCACUUAAAAGAUAUAUGGAGUUAGUAGUGCAACCUGCUCGGUCUGAUGAGUCCAGUUUUGGACGAAACAGC [AGUUUU]	1.79 ± 0.033	1.89 ± 0.13
GCUGUCACCGAGAAACUGUGAAGUAUAUCUUAAACCUGGGCACUUAAAAGAUAUAUGGAGUUAGUAGUGCAACCUGCUCGGUCUGAUGAGUCCUUCAUAGGACGAAACAGC [UUCAUA]	1.69 ± 0.019	1.82 ± 0.12
GCUGUCACCGAGAAACUGUGAAGUAUAUCUUAAACCUGGGCACUUAAAAGAUAUAUGGAGUUAGUAGUGCAACCUGCUCGGUCUGAUGAGUCCACUGUGGGACGAAACAGC [ACUGUG]	1.6 ± 0.038	1.76 ± 0.11
GCUGUCACCGAGAAACUGUGAAGUAUAUCUUAAACCUGGGCACUUAAAAGAUAUAUGGAGUUAGUAGUGCAACCUGCUCGGUCUGAUGAGUCCUCUACGGGACGAAACAGC [UCUACG]	1.74 ± 0.011	1.89 ± 0.092
GCUGUCACCGAGAAACUGUGAAGUAUAUCUUAAACCUGGGCACUUAAAAGAUAUAUGGAGUUAGUAGUGCAACCUGCUCGGUCUGAUGAGUCCCCAGAGGGACGAAACAGC [CCAGAG]	1.42 ± 0.049	1.62 ± 0.17
GCUGUCACCGAGAAACUGUGAAGUAUAUCUUAAACCUGGGCACUUAAAAGAUAUAUGGAGUUAGUAGUGCAACCUGCUCGGUCUGAUGAGUCCACCACUGGACGAAACAGC [ACCACU]	1.61 ± 0.062	1.82 ± 0.087
GCUGUCACCGAGAAACUGUGAAGUAUAUCUUAAACCUGGGCACUUAAAAGAUAUAUGGAGUUAGUAGUGCAACCUGCUCGGUCUGAUGAGUCCUAUGCUGGACGAAACAGC [UAUGCU]	1.72 ± 0.043	1.86 ± 0.11
GCUGUCACCGAGAAACUGUGAAGUAUAUCUUAAACCUGGGCACUUAAAAGAUAUAUGGAGUUAGUAGUGCAACCUGCUCGGUCUGAUGAGUCCAUAUUGGGACGAAACAGC [AUAUUG]	1.6 ± 0.052	1.78 ± 0.15
GCUGUCACCGAGAAACUGUGAAGUAUAUCUUAAACCUGGGCACUUAAAAGAUAUAUGGAGUUAGUAGUGCAACCUGCUCGGUCUGAUGAGUCCGACUCAGGACGAAACAGC [GACUCA]	1.709 ± 0.011	1.83 ± 0.11
GCUGUCACCGAGAAACUGUGAAGUAUAUCUUAAACCUGGGCACUUAAAAGAUAUAUGGAGUUAGUAGUGCAACCUGCUCGGUCUGAUGAGUCCAUGUGAGGACGAAACAGC [AUGUGA]	1.44 ± 0.082	1.65 ± 0.11
GCUGUCACCGAGAAACUGUGAAGUAUAUCUUAAACCUGGGCACUUAAAAGAUAUAUGGAGUUAGUAGUGCAACCUGCUCGGUCUGAUGAGUCCUCUGAGGGACGAAACAGC [UCUGAG]	1.66 ± 0.056	1.78 ± 0.098
GCUGUCACCGAGAAACUGUGAAGUAUAUCUUAAACCUGGGCACUUAAAAGAUAUAUGGAGUUAGUAGUGCAACCUGCUCGGUCUGAUGAGUCCCGGUGGGGACGAAACAGC [CGGUGG]	1.66 ± 0.066	1.79 ± 0.1
GCUGUCACCGAGAAACUGUGAAGUAUAUCUUAAACCUGGGCACUUAAAAGAUAUAUGGAGUUAGUAGUGCAACCUGCUCGGUCUGAUGAGUCCACCCGUGGACGAAACAGC [ACCCGU]	1.73 ± 0.023	1.84 ± 0.08
GCUGUCACCGAGAAACUGUGAAGUAUAUCUUAAACCUGGGCACUUAAAAGAUAUAUGGAGUUAGUAGUGCAACCUGCUCGGUCUGAUGAGUCCGUAUGUGGACGAAACAGC [GUAUGU]	1.6045 ± 0.00047	1.77 ± 0.087
GCUGUCACCGAGAAACUGUGAAGUAUAUCUUAAACCUGGGCACUUAAAAGAUAUAUGGAGUUAGUAGUGCAACCUGCUCGGUCUGAUGAGUCCCACAAGGGACGAAACAGC [CACAAG]	1.66 ± 0.017	1.83 ± 0.11
GCUGUCACCGAGAAACUGUGAAGUAUAUCUUAAACCUGGGCACUUAAAAGAUAUAUGGAGUUAGUAGUGCAACCUGCUCGGUCUGAUGAGUCCAGCUACGGACGAAACAGC [AGCUAC]	1.709 ± 0.017	1.81 ± 0.14
GCUGUCACCGAGAAACUGUGAAGUAUAUCUUAAACCUGGGCACUUAAAAGAUAUAUGGAGUUAGUAGUGCAACCUGCUCGGUCUGAUGAGUCCUCCACUGGACGAAACAGC [UCCACU]	1.695 ± 0.011	1.85 ± 0.12
GCUGUCACCGAGAAACUGUGAAGUAUAUCUUAAACCUGGGCACUUAAAAGAUAUAUGGAGUUAGUAGUGCAACCUGCUCGGUCUGAUGAGUCCGAGCAAGGACGAAACAGC [GAGCAA]	1.76 ± 0.023	1.83 ± 0.12
GCUGUCACCGAGAAACUGUGAAGUAUAUCUUAAACCUGGGCACUUAAAAGAUAUAUGGAGUUAGUAGUGCAACCUGCUCGGUCUGAUGAGUCCGCUUUCGGACGAAACAGC [GCUUUC]	1.58 ± 0.022	1.75 ± 0.11
GCUGUCACCGAGAAACUGUGAAGUAUAUCUUAAACCUGGGCACUUAAAAGAUAUAUGGAGUUAGUAGUGCAACCUGCUCGGUCUGAUGAGUCCGCGGGUGGACGAAACAGC [GCGGGU]	1.769 ± 0.0058	1.87 ± 0.12
GCUGUCACCGAGAAACUGUGAAGUAUAUCUUAAACCUGGGCACUUAAAAGAUAUAUGGAGUUAGUAGUGCAACCUGCUCGGUCUGAUGAGUCCCUAUUGGGACGAAACAGC [CUAUUG]	1.626 ± 0.0055	1.81 ± 0.1
